Experimental data reported in the supplement of paper PMC10567573.

B1: NEUROD6 (parent)
chain: YHSPELTTPPGHGTLDNSKSMKPY

Variants of: B1
Experiment: protein stability index of a GFP-peptide fusion (GPS, HEK-293T) (PSI 1-6); higher = more stable
Details: c terminus: a fixed tail appended
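Note: lentivirally expressed fusions sorted by FACS into six bins by GFP to DsRed ratio, PSI derived from sequencing read proportions per bin multiplied by bin number.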

Variant	protein stability index
YHEPELTTPPGHGTLDNSKSMKPY	3.81
YHQPELTTPPGHGTLDNSKSMKPY	3.12
YHNPELTTPPGHGTLDNSKSMKPY	1.56
YHVPELTTPPGHGTLDNSKSMKPY	3.42
YHIPELTTPPGHGTLDNSKSMKPY	2.89
YHAPELTTPPGHGTLDNSKSMKPY	2.15
YHKPELTTPPGHGTLDNSKSMKPY	3.71
YHGPELTTPPGHGTLDNSKSMKPY	3.46
YHYPELTTPPGHGTLDNSKSMKPY	2.02
YHRPELTTPPGHGTLDNSKSMKPY	3.04
YHTPELTTPPGHGTLDNSKSMKPY	2.77
YHWPELTTPPGHGTLDNSKSMKPY	2.52
YHDPELTTPPGHGTLDNSKSMKPY	2.82
YHCPELTTPPGHGTLDNSKSMKPY	2.33
YHHPELTTPPGHGTLDNSKSMKPY	2.44
YHMPELTTPPGHGTLDNSKSMKPY	1.94
YHLPELTTPPGHGTLDNSKSMKPY	2.19
YHFPELTTPPGHGTLDNSKSMKPY	1.86
YHSPEATTPPGHGTLDNSKSMKPY	2.58
YHSPECTTPPGHGTLDNSKSMKPY	2.81
YHSDELTTPPGHGTLDNSKSMKPY	2.97
YHSIELTTPPGHGTLDNSKSMKPY	2.23
YHSKELTTPPGHGTLDNSKSMKPY	2.18
YHSEELTTPPGHGTLDNSKSMKPY	3.36

Variant	protein stability index
YHSLELTTPPGHGTLDNSKSMKPY	1.95
YHSQELTTPPGHGTLDNSKSMKPY	2.46
YHSSELTTPPGHGTLDNSKSMKPY	2.44
YHSCELTTPPGHGTLDNSKSMKPY	2.38
YHSRELTTPPGHGTLDNSKSMKPY	2.32
YHSTELTTPPGHGTLDNSKSMKPY	2.08
YHSNELTTPPGHGTLDNSKSMKPY	2.46
YHSFELTTPPGHGTLDNSKSMKPY	2.21
YHSWELTTPPGHGTLDNSKSMKPY	2.82
YHSHELTTPPGHGTLDNSKSMKPY	2.07
YHSAELTTPPGHGTLDNSKSMKPY	2.6
YHSYELTTPPGHGTLDNSKSMKPY	1.68
YHSGELTTPPGHGTLDNSKSMKPY	2.02
YHSMELTTPPGHGTLDNSKSMKPY	2.52
YHSVELTTPPGHGTLDNSKSMKPY	2.11
GHSPELTTPPGHGTLDNSKSMKPY	4.91
THSPELTTPPGHGTLDNSKSMKPY	4.76
AHSPELTTPPGHGTLDNSKSMKPY	5.09
KHSPELTTPPGHGTLDNSKSMKPY	4.93
PHSPELTTPPGHGTLDNSKSMKPY	4.37
RHSPELTTPPGHGTLDNSKSMKPY	4.99
MHSPELTTPPGHGTLDNSKSMKPY	4.74
IHSPELTTPPGHGTLDNSKSMKPY	4.77
HHSPELTTPPGHGTLDNSKSMKPY	4.62

Variant	protein stability index
QHSPELTTPPGHGTLDNSKSMKPY	5.06
WHSPELTTPPGHGTLDNSKSMKPY	4.53
VHSPELTTPPGHGTLDNSKSMKPY	4.69
SHSPELTTPPGHGTLDNSKSMKPY	4.93
DHSPELTTPPGHGTLDNSKSMKPY	5.05
LHSPELTTPPGHGTLDNSKSMKPY	4.96
FHSPELTTPPGHGTLDNSKSMKPY	2.7
EHSPELTTPPGHGTLDNSKSMKPY	5.28
CHSPELTTPPGHGTLDNSKSMKPY	4.53
NHSPELTTPPGHGTLDNSKSMKPY	4.94
YHSPMLTTPPGHGTLDNSKSMKPY	1.98
YHSPVLTTPPGHGTLDNSKSMKPY	2.14
YHSPTLTTPPGHGTLDNSKSMKPY	2.28
YHSPYLTTPPGHGTLDNSKSMKPY	2.32
YHSPLLTTPPGHGTLDNSKSMKPY	1.67
YHSPFLTTPPGHGTLDNSKSMKPY	2.83
YHSPGLTTPPGHGTLDNSKSMKPY	2.14
YHSPSLTTPPGHGTLDNSKSMKPY	2.29
YHSPQLTTPPGHGTLDNSKSMKPY	2.34
YHSPWLTTPPGHGTLDNSKSMKPY	2.56
YHSPKLTTPPGHGTLDNSKSMKPY	2.14
YHSPALTTPPGHGTLDNSKSMKPY	2.71
YHSPDLTTPPGHGTLDNSKSMKPY	2.76
YHSPNLTTPPGHGTLDNSKSMKPY	2.43

Variant	protein stability index
YHSPCLTTPPGHGTLDNSKSMKPY	1.75
YHSPILTTPPGHGTLDNSKSMKPY	2.25
YHSPRLTTPPGHGTLDNSKSMKPY	2.66
YKSPELTTPPGHGTLDNSKSMKPY	4.69
YFSPELTTPPGHGTLDNSKSMKPY	4.01
YGSPELTTPPGHGTLDNSKSMKPY	4.41
YMSPELTTPPGHGTLDNSKSMKPY	4.18
YISPELTTPPGHGTLDNSKSMKPY	2.17
YASPELTTPPGHGTLDNSKSMKPY	3.41
YPSPELTTPPGHGTLDNSKSMKPY	4.29
YCSPELTTPPGHGTLDNSKSMKPY	3.23
YTSPELTTPPGHGTLDNSKSMKPY	3.61
YNSPELTTPPGHGTLDNSKSMKPY	4.71
YWSPELTTPPGHGTLDNSKSMKPY	3.91
YRSPELTTPPGHGTLDNSKSMKPY	4.14
YLSPELTTPPGHGTLDNSKSMKPY	3.17
YVSPELTTPPGHGTLDNSKSMKPY	2.25
YQSPELTTPPGHGTLDNSKSMKPY	3.15
YDSPELTTPPGHGTLDNSKSMKPY	4.75
YSSPELTTPPGHGTLDNSKSMKPY	4.53
YYSPELTTPPGHGTLDNSKSMKPY	4.04
YESPELTTPPGHGTLDNSKSMKPY	5.07
